Test results reported in the RNAGym collection of RNA variant scans (doi:10.7554/elife.80360).

B1: HDV Ribozyme (parent)
chain: GGCCGGCAUGGUCCCAGCCUCCUCGCUGGCGCCGGCUGGGCAACAUUCCGAGGGGACCGUCCCCUCGGUAAUGGCGAAUGGGACCCA

Variants of: B1
Assay: self-cleavage, relative activity (ratio to wild type); higher = more cleavage; co-transcriptional

Variant | self-cleavage
G52C A77G | 0.643
G28A C64A | 0.121
C7U G35U | 0.0437
U20G C75A | 0.0978
G1A C21A | 0.104
A16G C22U | 0.853
C21U C64A | 0.185
G2C C4U | 0.475
G39A G81U | 0.147
C21G G39U | 0.0378
C14U A87G | 1.07
A43C U47C | 0.208
G11A C18U | 0.12
C21A C66G | 0
A45G U79A | 0.755
C21A A42C | 0.0437
U23C G67U | 0.743
C33G C49G | 0.0978
U47C C57U | 0.712
C33G C61A | 0.193
U46A G53U | 0.712

Variant | self-cleavage
G5C C58G | 0.378
U23C C49G | 0.655
U23C C49A | 0.987
A8C C66U | 0.76
G17U U65G | 0.541
G17U U65A | 0.415
C19A C64G | 0.111
G39C C48U | 0.405
G50U G52U | 0.68
C21A A70U | 0
A56G A87C | 0.993
C24G U47G | 0.0978
G25C G81A | 0
G67C G82U | 0.185
C64A G68C | 0.554
A8C C15U | 0.604
C24U U46C | 0.268
C48A A87G | 0.955
G25U G54A | 0.086
G28C G35U | 0.0997
G29C C48U | 0.135

Variant | self-cleavage
C15U C86U | 0.895
C30U A45C | 0.138
C19G G31C | 0.104
A78C A87C | 0.199
G10A C22G | 0.0171
U65C A70U | 0.789
A43C G74C | 0.0811
G31U C58U | 0.571
G11A G80C | 0.158
C44G G53U | 0.939
G6A C32G | 0.138
C64U A70C | 0.956
G74C C85U | 0.128
G11C A16C | 0.95
C24U G54U | 0.618
U23C G55C | 0.914
U9G G76C | 1.14
G39A C41A | 0.471
G39A C41U | 0.793
G40A A43G | 0.623
A16G U79A | 0.997

Variant | self-cleavage
G2A A78U | 0.0674
U12A C14U | 0.332
U20C U69A | 0
C22A A70C | 0.17
G50U C66A | 0.901
G1A C26G | 0
C33U U47A | 0.872
C22U U47C | 0.424
A8C U37G | 0.166
A8U C57U | 0.91
C15A G81C | 0.208
U37C C58A | 1.22
A51U C75A | 0.123
C48G G76C | 0.867
C63A C85A | 0.618
C30A A42U | 0.241
G34A G76U | 0.269
G54C G80U | 0.206
G54C G80C | 0.256
C18U C61U | 0.481
